Like-named read-outs stand apart in the source and are kept apart here. Ends that are not written are not given here. * marks the point of attachment. FITC = O=C1OC2(c3ccc(O)cc3Oc3cc(O)ccc32)c2ccc(NC(=S)*)cc21; Ahx = NCCCCCC(=O)O
Legend:
[1] = target: FITC-Mature-1cys (Mus musculus) (UniProt P09535); assay: fluorescence polarisation
[2] = target: FITC-Mature-1cys (Mus musculus) (UniProt P09535); assay: fluorescence polarisation; remark: listed apart in the source
BiP [3] = target: T1, BiP (UniProt P20029 20-655); assay: fluorescence polarisation
T1 sequence (P20029 20-655): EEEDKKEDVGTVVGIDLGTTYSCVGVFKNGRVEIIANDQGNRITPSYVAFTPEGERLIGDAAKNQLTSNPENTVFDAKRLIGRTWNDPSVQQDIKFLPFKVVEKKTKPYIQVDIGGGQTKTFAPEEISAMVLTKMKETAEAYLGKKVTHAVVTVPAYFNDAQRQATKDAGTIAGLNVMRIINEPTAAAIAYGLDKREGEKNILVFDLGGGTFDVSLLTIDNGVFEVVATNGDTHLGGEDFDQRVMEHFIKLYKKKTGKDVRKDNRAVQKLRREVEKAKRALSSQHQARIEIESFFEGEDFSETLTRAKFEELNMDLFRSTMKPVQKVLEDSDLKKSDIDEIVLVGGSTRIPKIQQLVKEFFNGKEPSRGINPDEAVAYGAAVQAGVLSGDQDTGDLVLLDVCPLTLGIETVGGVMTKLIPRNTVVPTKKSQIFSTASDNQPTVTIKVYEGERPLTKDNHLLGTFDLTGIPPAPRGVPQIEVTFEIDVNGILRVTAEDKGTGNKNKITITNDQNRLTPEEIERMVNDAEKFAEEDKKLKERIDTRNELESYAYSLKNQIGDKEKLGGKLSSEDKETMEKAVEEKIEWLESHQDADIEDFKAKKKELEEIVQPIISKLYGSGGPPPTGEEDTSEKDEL

BiP [4] = target: T1, BiP; assay: fluorescence polarisation; remark: listed apart in the source
BSA = BSA (bovine (from the name BSA), UniProt P02769 25-607); assay: fluorescence polarisation
BSA, sequence (P02769 25-607): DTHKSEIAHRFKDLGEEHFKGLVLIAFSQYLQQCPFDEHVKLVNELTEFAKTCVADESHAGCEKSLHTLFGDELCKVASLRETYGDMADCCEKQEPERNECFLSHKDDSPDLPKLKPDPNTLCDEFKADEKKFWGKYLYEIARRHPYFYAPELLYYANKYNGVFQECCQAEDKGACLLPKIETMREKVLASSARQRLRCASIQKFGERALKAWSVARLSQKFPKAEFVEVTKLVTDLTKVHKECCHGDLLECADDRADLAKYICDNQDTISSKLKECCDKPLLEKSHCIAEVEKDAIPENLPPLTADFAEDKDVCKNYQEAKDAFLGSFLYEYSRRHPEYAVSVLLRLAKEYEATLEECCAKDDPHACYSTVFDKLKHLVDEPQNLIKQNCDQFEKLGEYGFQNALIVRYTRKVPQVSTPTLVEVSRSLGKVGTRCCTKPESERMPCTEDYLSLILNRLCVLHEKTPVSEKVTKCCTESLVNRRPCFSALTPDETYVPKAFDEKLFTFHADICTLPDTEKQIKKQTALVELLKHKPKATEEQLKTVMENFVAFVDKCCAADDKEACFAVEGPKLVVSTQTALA

BiP [5] = target: T1, BiP; assay: fluorescence polarisation; remark: listed apart in the source
dynamic light scattering = target: the molecule itself; assay: dynamic light scattering

FITC-Mature-1cys (Mus musculus), sequence (P09535 25-91): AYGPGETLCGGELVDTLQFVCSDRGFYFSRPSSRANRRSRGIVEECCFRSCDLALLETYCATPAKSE

Question: How did the Kd [1] turn out when “BiP (from UniProt P20029 20-655) (natural protein)” was run?
Answer: 9.7 µM

Question: And the Kd [2]?
Answer: 2.7 µM

Question: RDVC(FITC‑maleimide)TSQAVLPDDFPRYPVGKFFQYDTWRQSAGRLRRGLPALLRARRG (domain or fragment) [FITC-E-peptide 92-139] was tested. Which Kd (BiP [3]) did it give?
Answer: 1.9 ± 0.6 µM

Question: And the Kd (BiP [4])?
Answer: 0.52 ± 0.13 µM

Question: Which results are given for {FITC-Ahx}-DDFPRYPVGKFFQYDTWR [FITC-E-peptide 103-120]?
Answer: Kd (BSA): 13 ± 2 µM; Kd (BiP [5]): 0.46 ± 0.05 µM; Kd (BiP [3]): 13 ± 2 µM; Kd (BiP [4]): 0.95 ± 0.17 µM

Question: What does the source list for RDVC(FITC‑maleimide)TSQAVLPDDFPRYPVGKFFQYDTWR (domain or fragment) [FITC-E-peptide 92-120]?
Answer: Kd (BiP [3]): 8 ± 3.8 µM; Kd (BiP [4]): 0.67 ± 0.17 µM

B1: E-peptide (domain or fragment)
chain: RDVCTSQAVLPDDFPRYPVGKFFQYDTWRQSAGRLRRGLPALLRARRGRMLAKELKEFREAKRHRPLIVLPPKDPAHGGASSEMSSNHQ
Question: Does B1 bind (dynamic light scattering)?
Answer: binds

Question: {FITC-Ahx}-EAKRHRPLIVLPPKDPAHG [FITC-E-peptide 151-169] was tested. Which Kd (BiP [4]) did it give?
Answer: 15 ± 1 µM

Question: How did the Kd (BiP [4]) turn out when {FITC-Ahx}-QSAGRLRRGLPALLRARRG [FITC-E-peptide 121-139] was run?
Answer: 5.3 ± 0.6 µM

Source: doi:10.1101/2021.10.11.463904 (bioRxiv, 2021)
